According to the supplement of paper PMC10567573:

B1: ETS2 (parent)
chain: TSGKRYVYRFVCDLQNLLGFTPEE
B2: TRIM14 (parent)
chain: YARTPTLDPDTMHARLRLSADRLT

Variants of: B1
Experiment: protein stability index of a GFP-peptide fusion (GPS, HEK-293T) (PSI 1-6); higher = more stable
Conditions: c terminus: a fixed tail appended
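Also: lentivirally expressed fusions sorted by FACS into six bins by GFP to DsRed ratio, PSI derived from sequencing read proportions per bin multiplied by bin number.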

Protein stability index of substitutions, site by site:
E23: G 2.15, L 2.42, N 2.43, V 2.1, P 3.46, Q 2.63, F 2.66, C 2.97, Y 2.29, M 2.35, W 2.88, I 2.43, S 2.38, T 2.17, R 3.3, H 3.12, A 2.68, D 2.04
Q15: H 1.96, A 2.23, D 1.61, I 2.43, T 1.91, G 3.45, W 1.88, E 1.85, L 2.44, K 2.03, S 2.07, V 2.47, N 2.13, Y 2.23, F 2.09, P 2.7, C 2.23, R 3
L17: Y 2.37, Q 1.71, G 2.31, D 1.92, P 3.57, C 2.57, T 2.98, N 2.27, H 2.61, M 1.47, F 2.73, R 2.79, I 2.31, A 2.08, K 2.43, V 1.91, S 2.12, W 2.21, E 3.13
T21: E 2.32, L 2.1, Q 1.7, G 1.95, H 2.75, R 1.67, I 1.76, K 2.25, P 2.44, N 2.38, A 2.11, V 1.62, C 1.32, F 2.02, W 2.15, M 2.05, Y 1.77, D 1.6, S 2.13
V11: L 2.82, K 2.15, Q 1.94, C 3.14, F 2.56, N 2.67, I 2.64, T 2.36, R 1.57, A 3.07, W 2.14, H 2.07, M 2.85, E 2.61, S 2.02, D 2.59, P 2.85, Y 2.14
L18: R 2.09, F 1.84, N 2.29, C 1.39, H 1.32, A 1.99, T 1.91, I 1.2, W 2.1, P 1.68, V 2.91, E 2.04, M 2.07, Y 1.74, K 1.95, G 1.92, Q 2.88, S 1.87
C12: P 2.05, M 1.25, E 1.76, L 2.03, T 2.17, H 2.31, A 1.92, N 3.4, V 2.39, Y 1.77, I 1.96, R 2.58, D 1.72, S 2.9, K 2.98, Q 2.57, G 2.04, W 2.21, F 1.68
Y8: L 1.75, C 1.35, W 2.01, T 2.29, I 2.56, Q 2.02, V 2.5, G 2.15, K 2.11, E 2.67, S 2.23, N 3.26, P 2.28, D 2.78, H 2.15, R 2.23, M 2.93, F 1.55
N16: L 1.52, K 2.02, T 1.97, Y 1.75, Q 2.04, H 2.49, W 2.05, A 2.13, D 2.17, P 2.56, S 2.46, G 2.38, E 1.74, C 1.7, M 1.53, F 2.16, I 2.03, V 3.2
F10: I 2.02, M 2.06, G 2.57, T 2.26, N 3.32, K 3.16, D 3.9, E 2.75, H 2.04, Q 2.7, R 3.5, L 1.8, S 3.37, W 2.42, Y 3.17, A 2.02, P 2.59, C 2.06
G19: F 1.82, E 1.31, I 2.39, K 1.36, S 2.13, L 1.96, M 1.82, D 1.98, T 1.79, Q 2.65, P 2.07, C 1.32, H 1.34, V 2.01, W 2.65, A 3.01, Y 2.52
P22: F 1.89, R 3.16, S 1.8, L 2.85, Q 2.16, A 1.65, V 1.05, H 2.07, T 2.16, N 1.39, W 1.89, M 2.35, Y 3.16, E 1.46, C 1.4, K 1.83, G 1.63, I 2.24
R9: Q 1.72, H 1.65, F 1.06, Y 1.79, S 1.92, C 1.53, A 1.45, N 1.77, L 1.48, P 2.48, G 1.58, K 1.85, I 1.68, T 2.15, W 1.96, M 3, D 1.66, V 2.4, E 1.78
L14: Y 2.56, N 2.23, C 2.07, P 3.53, V 2.39, K 3.2, R 2.35, S 2.77, F 2.08, Q 2.81, D 3.01, W 2.53, G 2.34, H 2.34, I 2.41, T 2.69, M 2.14, A 3.91, E 3.19
D13: A 2.67, C 2.22, Q 2.46, H 1.79, V 2.33, S 1.57, P 3.25, T 2.99, W 2.98, N 1.77, K 2.48, G 2.41, E 2.11, R 2.11, Y 2.37, F 2.96, L 2.22, I 2.81
F20: Q 2.35, Y 2.77, T 1.88, N 3.28, L 2.17, I 1.61, A 2.59, K 1.77, P 3.26, C 1.93, V 1.93, H 1.97, M 1.62, D 1.48, E 2, R 1.87, W 3.05
E24: Y 2.38, A 2.69, V 2.51, G 2.14, K 1.81, H 2.03, W 2.5, N 2.33, L 1.96, C 2.32, T 2.71, Q 1.89, I 1.75, S 2.21, P 2.52, R 1.96, M 1.6, F 2.96

Variants of: B2
Experiment: as above
Conditions: c terminus: a fixed tail appended

Protein stability index of substitutions, site by site:
Y1: I 2.71, L 3.62, A 3.59, R 3.64, V 3.68, E 4.17, D 3.61, H 4.06, K 3.71, W 2.91, N 3.52, P 3.77, T 3.69, M 3.71, Q 4.33, F 2.21, C 3.2, G 4
A2: H 2.46, C 2.53, G 3.06, F 2.74, I 1.73, D 3.32, E 3.71
